In US5683884 (ZymoGenetics, Inc., dated 1997):
Bridges are numbered along the chain shown (N, C = ends). Where no end group is shown, it is not given here.

Legend:
[1] = target: T1, calcitonin receptor of T-47D human breast carcinoma cells (endogenous, positive control) (human, UniProt P30988); test: 125I calcitonin competition binding on whole T47D cells (positive control), average
T1 sequence: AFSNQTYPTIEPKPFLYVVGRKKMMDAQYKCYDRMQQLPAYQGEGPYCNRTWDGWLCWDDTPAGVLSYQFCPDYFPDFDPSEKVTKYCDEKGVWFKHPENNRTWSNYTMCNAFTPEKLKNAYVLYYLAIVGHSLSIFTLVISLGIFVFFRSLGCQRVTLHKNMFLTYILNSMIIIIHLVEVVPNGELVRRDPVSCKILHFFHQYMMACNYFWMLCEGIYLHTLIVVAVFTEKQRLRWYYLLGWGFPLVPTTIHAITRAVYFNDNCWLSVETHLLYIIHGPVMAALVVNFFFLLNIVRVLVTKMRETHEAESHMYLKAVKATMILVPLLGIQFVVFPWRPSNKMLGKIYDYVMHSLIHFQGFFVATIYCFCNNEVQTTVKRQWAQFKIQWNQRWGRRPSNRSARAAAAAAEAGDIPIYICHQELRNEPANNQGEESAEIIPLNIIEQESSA
Method: (§1) Clones Hollex1 and Hollex2 were tested for receptor-mediated ability to bind calcitonin using a competition assay. T47D cells were used as a positive control and BHK cells transfected with Zem1698 were used as a negative control.
(§2) The cells were plated at a density of 1×10^5 cells/well in a 24-well cell culture dish and allowed to grow for 48 hours at 37° C. and 5% CO_2 in growth medium (described in previous examples). The cells were rinsed in binding medium (500 ml RPMI 1640 (Sigma, St. Louis, Mo.), 1 mg/ml bacitracin (Sigma), and 1 mg/ml BSA (Boehringer Mannheim)) to remove the serum. Three hundred microliters of binding medium containing radiolabeled ^125I agonist and a serial dilution of unlabeled competitor (Table 1) were added to appropriate wells. The cells were incubated for 1.5 hours at room temperature, and then rinsed 3 times with PBS to remove unincorporated radioactivity. Five hundred microliters of 0.25N NaOH was added to each well to solubilize the cells. The samples were collected from each well and CPMs were counted on a gamma counter.

[2] = target: T2, human calcitonin receptor (cDNA clone pHollex, from T-47D breast carcinoma cDNA), expressed in transfected BHK cells (human)
T2 sequence: T1 sequence

[3] = target: T3, human calcitonin receptor (cDNA clone pHollex, from T-47D breast carcinoma cDNA), expressed in transfected … (human); test: 125I calcitonin competition binding on whole cells, clone Hollex1, average
T3 chain: T1 sequence
Method: as §1, §2

[4] = target: T2, human calcitonin receptor (cDNA clone pHollex, from T-47D breast carcinoma cDNA), expressed in transfected BHK cells (human); remark: listed apart in the source
[5] = target: T3, human calcitonin receptor (cDNA clone …); test: 125I calcitonin competition binding on whole cells, clone Hollex2, average
Method: as §1, §2

CSNLSTCVLGKLSQELHKLQTYPRTNTGSGTP-NH2 (ligand, disulfide 1-7; ends not checked; also: also used 125I-labelled as tracer) [salmon calcitonin]
Kd [1]: 0.6 nM | ED50 of labeled inositol phosphate levels (Hollex1) [2]: 9.5 nM | Kd [3]: 0.5 nM | ED50 of cAMP induction (Hollex1) [4]: 0.07 nM | ED50 of cAMP induction (Hollex2) [4]: 0.04 nM | induction of cAMP (radioimmunoassay, scintillation proximity assay) (fold induction) [4]: 12 | Kd [5]: 0.3 nM
